This note sets out measurements from patent US20260258115A1 (MAPP BIOPHARMACEUTICAL, published 2026).

Some results are limits rather than exact numbers.

To fix the notation:
B1: ADI-41373 (antibody, V domains shown)
VH: QVTLKESGGGLVKPGGSLRLSCAASGFTFSDYFMTWIRQAPGKGLEWVSYISSNSGYTKYAEDVKGRFSISRDNAKKTLFLQLNSLSAEDTAVYYCARVEFSSGDVPSLFDLWGQGTLVTVSS
VL: QSVLTQPPSVSGAPGQRVTISCTGSSSNIGAGYHVHWYQQLPGTAPKVLIHGNNNRPSGVPDRFSGSRSGTSASLAITGLQAEDEADYYCQSYDFSLSGWVFGGGTKLTVL
notes: IgG1; also called Ab 670
B2: ADI-41375 (antibody, V domains shown)
VH: QVQLVQSGGGVVQPGRSLRLSCATSGFTFSDYAIHWVRQAPGKGLEWVAVISYDGSHKYYGDSVKGRFTISRDNSKNTLYLQMNSLRPEDTAVYYCARSRSGSYYSSAIDNWGQGTLVTVSS
VL: DIQMTQSPSSLSASVGDRVTIACRASQGISSALAWYRQRPGKAPELLIYDASTLESGVPSRFSGYGAGTDFTLTISSLQPEDFATYYCQQFNSYPSITFGQGTKVEIK
notes: IgG1
B3: ADI-41367 (antibody, V domains shown)
VH: QVQLVQSGAAVKRPGASVKVSCKASGYTFSTNALHWVRQAPGQSLEWMGWINTDNGIPKYSERFHGRVTFTRDTSASTVYMDLSGLRSGDTAVYYCARDGSSGHWLGLSVLDNWGQGTLVTVSS
VL: QSALIQPASVSGSPGQSITISCTGTSDDVGAYNYVSWYQQYPNKAPKLVIYEVSHRPSGVSNRFSGSKSGNTASLTISGLQAEDEADYYCSSYTRSATPYVFGTGTKLTVL
notes: IgG1
B4: ADI-41391 (antibody, V domains shown)
VH: EVQLLESGPGLVKPSETLSLTCTVSGGSISGYYWSWIRQPPGKGLEWIGYIYHSGGSTNYNPSLKSRVTISVDTSKNQFSLKVSSVTAADTAVYYCARLARVVTTFDFWGQGALVTVSS
VL: QPVLTQPASVSGSPGQSITISCTGTSSDVGGYNYVSWYQQKPGTAPKLMIFDVSNRPSGVSNRFSGSKSDNTASLTISGLQAEDEADYYCSSYTSSTNLVFGGGTKLTVL
notes: IgG1
B5: ADI-41372 (antibody, V domains shown)
VH: QVQLVQSGAEVKKPGSSVKVSCKASGGISSSYAISWVRQAPGQGLEWMGGIIPIFGTTNYAQKFQGRVTITADKSTSTVYMELSSLRSEDSAVYFCARAYCSGGTCYGGADYWGQGTLVTVSS
VL: SYELTQPPSVSVSPGQTARITCSGDVLPKQYAYWYQQKLGQAPLLVMYKDTERPSGIPERFSGSSSVTAVTLTISGVQAEDEADYYCQSADSTQELFGGGTKLTVL
notes: IgG1; also called Ab 669
B6: ADI-41369 (antibody, V domains shown)
VH: EVQLVQSGGGVVQPGRSLRLSCAASGFTFSSYGMHWVRQAPGKGLEWVAVISHDGNNKYYGDSVKGRFTISRDNSKNTLHLQMNSLRGDDTAVYYCGKDPLKGDCSGGSCYQRIDYWGQGTLVTVSS
VL: NFMLTQPHSVSESPGKTVTISCTGSSGRIASNYVQWYQQRPGSAPATVIYDDNQRPSGVPDRFSGSIDSSSNSASLTISGLKTEDEADYYCQSYDRSNHVIFGGGTKLTVL
notes: IgG1; also called Ab 666
B7: ADI-41376 (antibody, V domains shown)
VH: QVQLQESGGGVVQPGRSLRLSCAASGFTFSSYAMHWVRQAPGKGLEWVAVISFDGTANKYYADSVKGRFAISRDNSKNTLYLQMNSLRAEDTAVYYCAKDDAIYSGGWVGDAFDLWGQGTMVTVSS
VL: EIVLTQSPATLSVSPGERATLSCRASQGVNSNLAWYQQKPGQAPRLLMYGASTRATGIPARFSGSGSETEFTLTISSLQSEDFAVYYCQQYNNWPRTFGQGTKVDIK
notes: IgG1; also called Ab 673
B8: ADI-41389 (antibody, V domains shown)
VH: EVQLVESGGGVVQPGRSLRLSCAASGFTFSNYAIHWVRQAPGKGLEWVAAISYDGGNKFYADSVKGRFTISRDNSRNTLYLQMNSLRPEDTAVYYCARDRWELNYGIDVWGQGTTVTVSS
VL: SYELMQPPSVSVSPGQTARITCSGDALPKQYAYWYQQKPGQAPVLVIYKDSERPSGIPERFSGSTSGTTVTLTISGVQAEDEADYYCQSADSSSTFFYVFGTGTKLTVL
notes: IgG1; also called Ab 683
B9: ADI-41392 (antibody, V domains shown)
VH: EVQLVESGGGVVQPGGSLRLSCAASGFEFRDYAMHWVRQAPGKGLEWVALISYDGSKIHYADSVQGRFSISRDNSKNSLYLQMNSLRSEDSAKYYCVQDHWLVPAFWGQGAQVTVSS
VL: QPVLTQPASVSGSPGQWITISCTGTSSDIGYYDYVSWYQQYPGKAPKLIIYEVSHRPSGVSNRFSGSKSGNTASLSISGLQAEDEADYYCSSYTTSNAGVFGTGTKLTVL
notes: IgG1
B10: ADI-41374 (antibody, V domains shown)
VH: QVQLVQSGAEVKKPGSSVKVSCKASGGTFSNHAIDWVRQAPGQGLEWMGRIIPMVGLATYTRKFQGRVTISVDKSTSTAYMELSSLISDDTAVYYCARRTPEMAWGYWGQGTTVTVSS
VL: DIVMTQTPSSLSASVGDRVTITCQASQDIRYYVNWYQQKPGKAPKLLIYDASTLETGVPSRFSGRGSGTDFTLIISSLQPEDIATYYCQQYGDLPTFGQGTRLEIK
notes: IgG1; also called Ab 671
B11: ADI-41368 (antibody, V domains shown)
VH: EVQLVESGGGVVQPGRSLRLSCAASGFIFRNYGMHWVRQAPGKGLEWVAGTSFEGRNKDYGHSVKGRFTISRDNSKDTLYLQMNSLRPEDTAVYSCAKGSSLQWSHLDWYFDLWGRGTLVTVSS
VL: DIVMTQSPSTLSASVGDRVTITCRASQSFSSWLAWYQQKPGKAPNLLIYDASTLESGVPSRFSGSGSGTEFTLTISSLQPDDFATYYCQQERTFGQGTKVEIK
notes: IgG1; also called Ab 665
B12: ADI-41370 (antibody, V domains shown)
VH: EVQLVESGGGLVKPGGSLRLSCAASGFTFSGFSMNWVRQAPGKGLEWVSSISSTSRYIYYADSVQGRFTISRDNAKNSLYLQMNSLRAEDTAVYYCARDPGGSASFVPYYYGMDVWGQGATVTVSS
VL: SYELIQPPSVSVSPGQTARITCSGDALPNQYVYWYQKKPGQAPVLVIYKDTEGPLGIPERFSGSSSGTTVTLTISGVQAEDEADYYCQSADSSGTYPYVVFGGGTKLTVL
notes: IgG1; also called Ab 667
B13: ADI-41381 (antibody, V domains shown)
VH: QVQLQESGPGLVKPSQTLSLTCTVSGDSISGGEHYWSWIRQPPGKGLEWIGSIYYSGTTYYNPSLKSRLTVSVDTFKNQFSLMLSYVTAADTAVYYCARDASPAYHDYIWGSCRYFDKWGQGTLVTVSS
VL: EIVLTQSPGTLSLSPGERATLSCRASQSVSSNYLAWYQQKPGQAPRILIHGASSRATGIPDRFSGSGSGTDFTLTVSRLEPEDFAVYYCQQYGSTPYTFGQGTKVEIK
notes: IgG1; also called Ab 678
B14: ADI-41371 (antibody, V domains shown)
VH: QVQLQESGPRLVKPSQTLSLTCTVSGGSITTGEHYWSWIRQSPGRGLEWIGYISYSGSTYYNPSLKSRVTISVDTSKTRISLNLRSVTAADSAVYYCARDQEDSDYIWGSSRVFDIWGQGTMVTVSS
VL: ETTLTQSPGTLSLSPGERATLSCRASQNVGNNYLAWYQQKPGQAPRVLIQDASTRATGIPDRFSGSGSGTDFTLTISRLEPEDFAVYHCQQYGSAPWTFGQGTKVEIK
notes: IgG1; also called Ab 668
B15: ADI-41378 (antibody, V domains shown)
VH: EVQLVESGPGLVKPSGTLSLTCAVSGDSISSSNWWSWVRQPPGKGLEWIGEVSHSGNTDYNPSLKSRVTISVDKSKNQFSLKLSSVTAADTAVYYCARPSPCSGGSCYWFFDLWGRGTLVTVSS
VL: DIRLTQSPSSLSASVGDRVTITCRASQTINAYLNWYQQRPGKAPNLLIYAASSLQSGVPSRFSGSGSGTDFTLTISSLQPEDFATYYCQQSYKTAYTFGQGTKVEIK
notes: IgG1
B16: ADI-41385 (antibody, V domains shown)
VH: EVQLVESGGGVVQPGRSLRLSCAASGFTFSSYGMHWVRQAPGKGLEWVAVIWYDGNNEKYADSVKGRFTISRDNSKNTLYLQMNSLRAEDTAVYYCARPTQKYSSSWYWEDSIDYWGQGTLVTVSS
VL: QSVLTQPPSVFGAPGQRVTISCTGSSSNIGAGYPVHWYQQLPGTAPKLLIYGNSNRPSGVPDRFSGSKSGTSASLAITGLQAEDEADYYCQSYDSSLSGGVVFGGGTKLTVL
notes: IgG1; also called Ab 681
B17: ADI-41384 (antibody, V domains shown)
VH: QVQLVQSGAEVKKPGSSVRVSCKASGGTFSRYAISWVRQAPGQGLEWMGGVIPRFDKTNYAQKFQGRVMITADKSTSTAYMELSSLRSDDTAVYYCAGDRLDTKITHTWYGFGDFWGQGTTVTVSS
VL: EIVLTQSPGTLSLSPGERATLSCRASQSVTSNFLAWYQQRPGQAPRLLIYGASVRAIDIPDRFSGSGSGTDFTLTISRLEPEDFAVYYCQQYGDPFRTFGQGTKVEIK
notes: IgG1; also called Ab 680

One experiment addresses RSV postfusion F (postF), F deltaFP (respiratory syncytial virus, UniProt P03420 26-513). The experiment can be described thus: BLI, IgG on sensor, 100 nM antigen. On the technique in general: BLI is a label-free optical method that tracks binding on a fibre tip over time.
As usually defined, the Kd is the free concentration of one partner at which half of the binding sites on the other are occupied at equilibrium, for simple one-to-one binding. A high value points to lower affinity. Take B1: the Kd was 1.18 nM.

As for B2, the Kd worked out at 1.02 nM.

B3 showed an equilibrium dissociation constant (Kd) of 4.72 nM.

Take B4: binding was put at a Kd of 0.479 nM. Against the preceding molecule, the Kd is about 9.9-fold lower.

As for B5, the dissociation constant (Kd) worked out at 0.425 nM. This Kd and that of the molecule before are within 1.5-fold of each other.

B6 showed an equilibrium dissociation constant (Kd) of 0.308 nM.

B7 registered a dissociation constant (Kd) of 0.705 nM.

On to B8, for which the Kd amounted to 0.513 nM.

Regarding B9, the Kd is 0.359 nM.

In turn, B10 gave a Kd of 0.369 nM. This Kd and that of the molecule before are within 1.5-fold of each other.

Molecule B11 yielded a Kd of 0.878 nM.

Consider B12, for which binding was put at a Kd of 1.64 nM.

In turn, B13 yielded a Kd of 1.34 nM.

For the molecule B14, the equilibrium dissociation constant (Kd) stood at 0.543 nM.

Molecule B15 returned an equilibrium dissociation constant (Kd) of 0.739 nM.

B16 yielded a dissociation constant Kd of 0.601 nM. This Kd and that of the molecule before are within 1.5-fold of each other.

B17 gave a Kd of 0.563 nM.

The next experiment has as its target RSV prefusion F (preF), DS-Cav1 (respiratory syncytial virus, UniProt P03420 26-513). The experiment in a line: BLI, IgG on sensor, 100 nM antigen.
B1 gave an equilibrium dissociation constant (Kd) of 3.71 nM. In other words, the single-digit nanomolar range.

B2: the Kd turned out to be 2.96 nM.

Regarding B3, the affinity, expressed as Kd, was 17.6 nM.

B4 displayed a dissociation constant Kd of 0.882 nM. Compared with the last molecule, the Kd is about 20-fold lower.

On to B5, for which the affinity, expressed as Kd, was 2.48 nM.

The molecule B6 gave an equilibrium dissociation constant (Kd) of 0.685 nM.

B7 showed an equilibrium dissociation constant (Kd) of 4.15 nM. This Kd lies about 6.1-fold higher than the previous one.

In the case of B8, the affinity, expressed as Kd, was 2.58 nM.

Molecule B9 registered a Kd of 0.329 nM. Against the preceding molecule, the Kd is about 7.8-fold lower.

The molecule B10 had a Kd of 1.39 nM.

With B11, the Kd was 3.08 nM.

Regarding B12, the Kd amounted to 5.59 nM. Against the preceding molecule, the Kd is about 1.8-fold higher.

The molecule B13 showed a Kd of 2.6 nM.

The molecule B14 had a dissociation constant (Kd) of 2.96 nM.

B15 came in with an equilibrium dissociation constant (Kd) of 2.98 nM.

In turn, B16 showed a Kd of 4.52 nM.

Consider B17, for which the equilibrium dissociation constant (Kd) was 3.45 nM. The Kd values of the last two molecules are within 1.5-fold of each other.

The target of the next experiment is RSV fusion glycoprotein (RSV F) on RSV-A2 virus (respiratory syncytial virus, UniProt P03420 26-574). The experiment can be described thus: cell-based or functional assay.
For the molecule B1, the “Neutralization IC50 (RSV subtype A)” value is over 25 µg/mL.

As to B2, the “Neutralization IC50 (RSV subtype A)” value was over 25 µg/mL.

In the case of B3, the “Neutralization IC50 (RSV subtype A)” value is over 25 µg/mL.

B4: the “Neutralization IC50 (RSV subtype A)” value was over 25 µg/mL.

For B5, the “Neutralization IC50 (RSV subtype A)” value was over 25 µg/mL.

As for B6, the “Neutralization IC50 (RSV subtype A)” value was over 25 µg/mL.

For B7, the “Neutralization IC50 (RSV subtype A)” value is over 25 µg/mL.

With B8, the “Neutralization IC50 (RSV subtype A)” value is over 25 µg/mL.

With B9, the “Neutralization IC50 (RSV subtype A)” value is 0.18 µg/mL.

With B10, the “Neutralization IC50 (RSV subtype A)” value is over 25 µg/mL.

For B11, the “Neutralization IC50 (RSV subtype A)” value was over 25 µg/mL.

Turning to B12, the “Neutralization IC50 (RSV subtype A)” value is over 25 µg/mL.

On to B13, for which the “Neutralization IC50 (RSV subtype A)” value was over 25 µg/mL.

As to B14, the “Neutralization IC50 (RSV subtype A)” value was over 25 µg/mL.

For B15, the “Neutralization IC50 (RSV subtype A)” value was over 25 µg/mL.

On to B16, for which the “Neutralization IC50 (RSV subtype A)” value was over 25 µg/mL.

As for B17, the “Neutralization IC50 (RSV subtype A)” value was over 25 µg/mL.
